# Article PMC7889167 (mAbs, 2021)
# B1: europium cryptate-labeled MJ4-2 (antibody, V domains shown)
# VH: EVQLVESGGGLVQPGRSLRLSCAASGVTFSDYHMAWVRQAPKKGLEWVATIIYDAARTYYRDSVKGRFTISRDNAKNSLYLQMNSLRAEDTAVYYCATWQTTGTPGWFAYWGQGTLVTVSS
# VL: DIQMTQSPSSLSASVGDRVTITCGASQSVSISRFNLMHWYQQKPGHQPKLLIYRASNLASGVPSRFSGSGSGTDFTLTINPLQAEDFATYYCQQSRESPPTFGGGTKVEIK
# Biological target: biotinylated hIL-21 R (human, UniProt Q9HBE5, biotin (site not stated))
# Assay: AlphaScreen or HTRF
# Chain of biotinylated hIL-21 R (Q9HBE5 20-232): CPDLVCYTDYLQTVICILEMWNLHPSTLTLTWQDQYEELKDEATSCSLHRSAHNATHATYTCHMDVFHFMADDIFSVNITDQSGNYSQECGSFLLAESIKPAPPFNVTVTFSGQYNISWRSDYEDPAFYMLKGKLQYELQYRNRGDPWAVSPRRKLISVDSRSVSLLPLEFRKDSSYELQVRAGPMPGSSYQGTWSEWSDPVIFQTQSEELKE
binder,measurement,value
B1,binding result,binds
